Data set [1] deals with blood clotting factor VII (UniProt P08709).
A further data set has as its target prourokinase (UniProt P00749).

Sequence of proenzyme form of the factor VII-activating protease (chain, as listed by the source): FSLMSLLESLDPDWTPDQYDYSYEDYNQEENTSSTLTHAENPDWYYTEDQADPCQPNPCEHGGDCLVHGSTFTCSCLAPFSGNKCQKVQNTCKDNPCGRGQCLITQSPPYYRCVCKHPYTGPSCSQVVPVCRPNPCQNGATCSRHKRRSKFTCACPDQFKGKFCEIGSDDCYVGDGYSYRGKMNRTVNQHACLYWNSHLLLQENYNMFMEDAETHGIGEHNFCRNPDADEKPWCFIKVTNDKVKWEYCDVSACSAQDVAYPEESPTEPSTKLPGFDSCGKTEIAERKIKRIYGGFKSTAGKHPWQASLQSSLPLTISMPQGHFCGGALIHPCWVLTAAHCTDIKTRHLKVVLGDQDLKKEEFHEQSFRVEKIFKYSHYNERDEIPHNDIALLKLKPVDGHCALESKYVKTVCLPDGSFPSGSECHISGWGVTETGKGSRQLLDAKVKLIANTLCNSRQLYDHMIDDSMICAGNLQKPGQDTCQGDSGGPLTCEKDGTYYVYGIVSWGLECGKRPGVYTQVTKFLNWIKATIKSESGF
Sequence of blood clotting factor VII (P08709 61-466): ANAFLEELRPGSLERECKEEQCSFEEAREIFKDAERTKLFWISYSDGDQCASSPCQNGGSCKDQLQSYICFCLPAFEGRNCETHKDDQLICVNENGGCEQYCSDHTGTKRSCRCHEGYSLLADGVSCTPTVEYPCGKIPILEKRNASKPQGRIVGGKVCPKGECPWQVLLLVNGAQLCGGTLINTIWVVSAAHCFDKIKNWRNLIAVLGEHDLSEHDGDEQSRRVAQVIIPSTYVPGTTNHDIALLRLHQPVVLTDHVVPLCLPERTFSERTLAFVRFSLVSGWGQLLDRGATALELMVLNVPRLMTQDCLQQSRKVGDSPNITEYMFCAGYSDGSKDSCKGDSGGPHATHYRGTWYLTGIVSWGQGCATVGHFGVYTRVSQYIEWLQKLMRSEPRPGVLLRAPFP

“proenzyme form of the factor VII-activating protease”: the “activation of factor VII, with subsequent detection of activated factor VII (activity tests of Example 1)” value in data set [1] was “The activity tests (see Example 1) confirmed the nativity of the protein in the sense of the retainment of the biological activities”. Also, the “activation of prourokinase, with subsequent detection of urokinase (activity tests of Example 1)” value with prourokinase is on record as “The activity tests (see Example 1) confirmed the nativity of the protein in the sense of the retainment of the biological activities”.

Source of the values: patent publication US6677440.
